Assay: yeast display, Sf9 membrane polyspecificity reagent, FACS + sequencing; frameworks hold sequencing errors
Summary of the method: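 Using colony PCR, genes from sorted yeast display clones were amplified, then sequenced on MiSeq at 2 × 250 and filtered by CDR length. The clones had been stained with 10% biotinylated, detergent-solubilized Sf9 membrane reagent for 1 hour at 4 °C and sorted by FACS into low and high (top ~1%) gates on anti-HA and streptavidin fluorescence. Polyreactivity labels come from the gate of origin.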

| Sequence | polyreactivity (PSR sort gate) |
| --- | --- |
| QVQLVESGGGLVQAGGSLRLSCAASGSTFVQNTMGWYRQAPGKERELVAAITRGGSTSYADSVKGRFTISRDNAKNTVYLQMNSLKPEDTAVYYCNAKSRSPTYRYRSWPYNYWGQGTQVTVSS | high polyreactivity |
| QVQLVESGGGLVQAGGSLRLSCAASGSTFVQYAMGWYRQAPGKERELVAAITRSGGSTYYADSVKGRFTISRDNAKNTVYLQMNSLKPEDTAVYYCAADFSSSYRAFNYWGQGTQLTVSS | high polyreactivity |
| QVQLVESGGGLVQAGGSLRLSCAASGSTFVRNAMGWYRQAPGKERELVAAITSSGGSTYYADSVKGRFTISRDNAKNTVYLQMNSLKPEDTAVYYCNAELGSDTANYDYWGQGTQVTVSS | low polyreactivity |
| QVQLVESGGGLVQAGGSLRLSCAASGSTFVRNAMGWYRQAPGKERELVAGISTGDNTYYADSVKWRFTISRDNAKNTVYLQMISLKPEDTAVYYCNATKEFSFGLDYWGQGTQVTVSS | low polyreactivity |
| QVQLVESGGGLVQAGGSLRLSCAASGSTFVRNAMGWYRQAPWKERELVAAIRWRSGSTYYADSVKGRFTISRDNAKNTVYLQMNSLKPEDPAVYYCAVDYNSFRYGPLGYWGQGTQVTVSS | high polyreactivity |
| QVQLVESGGGLVQAGGSLRLSCAASGSTFVRNAMGWYRQATGKERELVAAITTSGARTYYADSVKGRFTISRDNAKNTVYLQMNSLKPEDTAVYYCAAEYKGRTYRFDYWGQGTQVTVSS | low polyreactivity |
| QVQLVESGGGLVQAGGSLRLSCAASGSTFVRNDMGLYRQAPGKERELVAAITRGGRTYYADSVKGRFTISRDNAKNTVYLQMNSLKPEDTAVYYCAAEGTGYSVGWQYGYWVQGTQVTVSS | low polyreactivity |
| QVQLVESGGGLVQAGGSLRLSCAASGSTFVRNGMGWYRQSPGKVRELVASISGRGGSTYYADSVKGRFTISRDNAKNTVYLQMNSLKPEDTAVYYCAARKQRGGGPTFDYWGQGTQVTVSS | high polyreactivity |
| QVQLVESGGGLVQAGGSLRLSCAASGSTFVRNVMGWYRQAPGKERELDAAITRSGDTTYYADSVKGRFTISRDNAKNTVYLQMNSLKPEDTAVYYCAKRTFVRRGSIYPIDDYWGQGTQVTVSS | low polyreactivity |
| QVQLVESGGGLVQAGGSLRLSCAASGSTFVRNVMGWYRQAPGKERELVAAITRSGDTTYYADSVKGRFTISRDNAKNTVYLQMNSLKPEDTAVYYCAKRTFVRRGSIYPIDDYWGQGTQVTVSS | low polyreactivity |
| QVQLVESGGGLVQAGGSLRLSCAASGSTFVRYAMGWYRQAPGKERELVAAIRGGGGTYYADSVKGRFTISRDNAKNTVYLQMNSLKPEDTAVYYCAADTYYYYWFAGYTEYDYWGQGTQVTVSS | low polyreactivity |
| QVQLVESGGGLVQAGGSLRLSCAASGSTFVRYAMGWYRQAPGKERELVAAISGGGSTSYADSVKGRFTISRDNAKNTVYLQMNSLKPEDTAVYFCAKAGYRSEFEYWGQGTQVTLSS | low polyreactivity |
| QVQLVESGGGLVQAGGSLRLSCAASGSTFVRYAMGWYRQAPGKERELVAAISRRGSSTYYADSVKGRFTISRDNAKNTVYLQMNSRKPEDTADYYCAVDYSPGFDDYDYWGQGTHVTVSS | high polyreactivity |
| QVQLVESGGGLVQAGGSLRLSCAASGSTFVRYAMGWYRQAPGKERELVASISSSGSTYYADSVKGRFTISRDNAKNTVYLQMNSLKPEDTAVYYCAKQYGGRYGYWGQGTQVTVSS | low polyreactivity |
| QVQLVESGGGLVQAGGSLRLSCAASGSTFVRYVMGWYRQAPGKERELVAAISEGGGSTYYADSVKGRFTISRDNAKNTVYLQMNSLKPEDTAVYYCAAGRSNSYSPRRRVTYGYNYWGQGTQVTVSS | high polyreactivity |
| QVQLVESGGGLVQAGGSLRLSCAASGSTFVRYVMGWYRQAPGKERELVAAISRRGGSTYYADSVKGRFTISRDNAKNTVYLQMNSLKPEDTAVYYCAARGTSRKYYYWGQGTQVTVSS | high polyreactivity |
| QVQLVESGGGLVQAGGSLRLSCAASGSTFVSNAMGWDRQAPGQEREVVAALSSGGSPYYADSVKGRFTISRDNAKNTVYLQMNRLKPEDTAVYYCNKRRGRKWPGNYSVVKLLMGYWGQGTQVTVSS | low polyreactivity |
| QVQLVESGGGLVQAGGSLRLSCAASGSTFVSNAMGWYRQAPGKERELVAAISSSGGRTSYADSVKGRFTISRDNAKNTVYLQMNSLKPEDTAVYYCAARFKSVDYVQYYYWGQGTQVTVSS | low polyreactivity |
| QVQLVESGGGLVQAGGSLRLSCAASGSTFVSNAMGWYRQAPGKERELVAAISTSGGSTYYADSVKGRFTISRDNAKKTVYLQMNSLKTEDTAVYFCAAVSPRRYRYDYWGQGTQVTVSS | low polyreactivity |
| QVQLVESGGGLVQAGGSLRLSCAASGSTFVSNAMGWYRQAPGKERELVAAITTGGSTYYADSVKGRFTISRDNAKNTVYLQMNSLKPEDTAVYYCAADSVLNWFWGYEYWGQGTQVTVSS | low polyreactivity |
| QVQLVESGGGLVQAGGSLRLSCAASGSTFVSYALGWYRQAPGKERDLVAAISRSGGSTYYADSVKGRFTISRDNAKNTVYVQMNRLKPEDTAVFYCAADCRGPSKRNRDYWGQGTEVTVSS | high polyreactivity |
| QVQLVESGGGLVQAGGSLRLSCAASGSTFVSYAMGGSRQAPGKERELVAAISRSGGSTYYADSVKGRFTISRDTAKNTVYLQMNSLKPEDTAGYYCAADGRGPSKRNRDYWGQGTQVTVSS | high polyreactivity |

| Sequence | polyreactivity (PSR sort gate) |
| --- | --- |
| QVQLVESGGGLVQAGGSLRLSCAASGSTFVSYAMGWYRQAPGKERELVAVISYRGGGTYYADSVKGRFTISRDNAKNTVYLQMNSLKPEDTAVYYCNAELWVLVSSYSYHYDGFDYWGQGTQVTVSS | low polyreactivity |
| QVQLVESGGGLVQAGGSLRLSCAASGSTFVSYTMGWYRQAPGKERELVAAISYNGARTYYADSVKGRFTISRDNAKNTVYLQMISLKPEDTAVYDCARRYYSQYDYWGQGTQVTVSS | high polyreactivity |
| QVQLVESGGGLVQAGGSLRLSCAASGSTFVVNAMGWYSLAPGKERELVAAITQDGDGTYYADSVKGRFTISRDNAKNTVYLQMNSLKPEDTAVYYCAAYPFSGPYDEFDYWRQGTQVTVSS | low polyreactivity |
| QVQLVESGGGLVQAGGSLRLSCAASGSTFVVNDMGWYRQAPGKDRELVASITAGGSTYYADSVKGRFTISRDNAKNTVNLQMNSLKPEDTAVYYCAKVQDRAYLPHQRGRERDYDYWGQGTQVTVSS | low polyreactivity |
| QVQLVESGGGLVQAGGSLRLSCAASGSTFVVYAMGWYRQAPGKERELVARITLSDGSTNYADSVKGRFTISRDNAKNTVYLQMNSLKPEDTAVYYCAAEVVPFYYFWFDYWGQGTQVTVSS | low polyreactivity |
| QVQLVESGGGLVQAGGSLRLSCAASGSTFVWYAMGWYRQAPGKERELVASITSGGNTNYADSVKGRFTISRDNAKNTVYLQMNSLKPEDSAVYYCNAVRSQRSLSSRYYYWGQGTQVTVSS | low polyreactivity |
| QVQLVESGGGLVQAGGSLRLSCAASGSTFVYNAMGWYRQAPGKERELVAAITVSDGSTYYADSVKGRFTISRDNAKNTVYLQMNSLKPEDTAVYYCNADFPRKTRYEYWGQGTQVTVSS | low polyreactivity |
| QVQLVESGGGLVQAGGSLRLSCAASGSTFVYNVMGWYRQAPGKERELVAAIRWRGGSTYADSVKGRFTISRDNAKNSVYLQMTSLKPQDTAVYYSNTGHEEDEYDYWGQGTQVTVSS | low polyreactivity |
| QVQLVESGGGLVQAGGSLRLSCAASGSTFVYYAMGWYRQAPGKERALVASITTSAGSTYYADSVKGRFTISRDTAKNSVYLQMNSLKPEDTAVYYCNARITITYYYWGQGTQVTVSS | high polyreactivity |
| QVQLVESGGGLVQAGGSLRLSCAASGSTFVYYAMGWYRQAPGKERELVADISWSGGDTYYADSVKGRFTISRDNAKNTVYLQMNSLKPVDTAVYYCAAEWSTPSYVGFADGFEYWGQGTQVTVSS | low polyreactivity |
| QVQLVESGGGLVQAGGSLRLSCAASGSTFVYYAMGWYRQAPGKERELVARISSGGSTYYADSVKGRFTISRDNAKNTVYLQMNSLKPEDTAVYYCAVLLWVSPLKREFYWGQGTQVTVSS | high polyreactivity |
| QVQLVESGGGLVQAGGSLRLSCAASGSTFVYYAMGWYRQAPGKERELVATINYNGGSTSYADSVKGRFTISRDNAKNTVYLQMNSLKPEDTAVYYCAKDRYYTWGDYWGQGTQVTVSS | low polyreactivity |
| QVQLVESGGGLVQAGGSLRLSCAASGSTFVYYAMGWYRQAPGKERELVATITSGGSTKYADSVKGRFTISRDNAKNTVYLQMNSLKPEDTAVYYCAAAYRVRGRTYDSWGQGTQVTVSS | high polyreactivity |
| QVQLVESGGGLVQAGGSLRLSCAASGSTFVYYAMGWYRQAPGKERELVAVITWSGGRTYYADSVKGRFTISRDNAKNTVYVLMNSLKPEDTAVYYCAARYPGYQYGLDYWGEGTQVTVSS | high polyreactivity |
| QVQLVESGGGLVQAGGSLRLSCAASGSTFVYYTMGWYRQAPGKERELVATITYGGGSTYYADSVKGRFTISRDNAKNTVYLQMNSLKPEVTAVYYCAARPSWVRKMYYWGQGTQVTVSS | high polyreactivity |
| QVQLVESGGGLVQAGGSLRLSCAASGSTFWAYAMGWYRQAPGKERELVAAITTGGGRTFYADSVKGRFTISRDNAKNTVYLQMNSLKPEDTAVYYCAAVSQSYRMYYWGQGTQVTVSS | low polyreactivity |
| QVQLVESGGGLVQAGGSLRLSCAASGSTFWFYAMGWYRQAHGKERELVAVISNSGSTYYADSVKGRFTISRDNAKNTVYLQMNSLKPEDTAVYYCNKDGGGDSYWYDYWGQGTQVTVSS | low polyreactivity |
| QVQLVESGGGLVQAGGSLRLSCAASGSTFWGYAMAWYRQAPGKERELVATINQSAGSTYYADSVKGRFTISRDNAKNTVYLQMNSLKPEDTAVYYCAAEARVQFSYDYWGQGTQVTVSS | low polyreactivity |
| QVQLVESGGGLVQAGGSLRLSCAASGSTFWGYAMGWSRPAPGKERELVATITTGGGGTYYADSVKGRFTISRDNAKNTVYLQMNSLKPEDTAVYYCAARLRDGRTPRTEYDYWGQGTQVTVSS | low polyreactivity |
| QVQLVESGGGLVQAGGSLRLSCAASGSTFWGYTMGWYRPAPGKERELVAAITGSGGSTNYADSVKGRFTISRDNAKNTVYLQMNSLKPEDTAVYYCATQGITPSNSYDYWGQGTQVTVSS | low polyreactivity |
| QVQLVESGGGLVQAGGSLRLSCAASGSTFWKYAMGWYRQAPGKEREFVAAITRSGGNTYYADSVKGRFTISRDNAKNTVYLQMNSLKPEDTAVYYCAKVYKLITSYRGFGYWGQGTQVTVSS | high polyreactivity |

Reference: the nanobody polyreactivity screen of Harvey et al. (2022)
